The record followed here is patent US20070292434A1 (VIB VZW, published 2007).

Data set [1] deals with the molecule itself. The data set is described as follows: non-reducing anti-FLAG Western blot of COS-1 supernatant (self-association). The text has this:
Panel A: The plasmid encoding FNIII-FLAG-His was transfected in COS-1 cells. Supernatant was subjected to Western blot analysis under reducing (R) or non-reducing (NR) conditions with an anti-FLAG antibody.
Panel A: Plasmid pMET7 CRH2-FLAG-His was transiently transfected in COS-1 cells. Supernatant was subjected to Western blot analysis with an anti-FLAG antibody under reducing (R) and non-reducing (NR) conditions.
We next analyzed the ligand-independent clustering of the FNIII domains in more detail. Constructs were generated to produce secreted forms of the FNIII domains, either as a FLAG-His-, or as a SEAP-FLAG-tagged protein. When FNIII-FLAG-His was expressed in COS-1 cells and analyzed under non-reducing conditions, di-, tri- and even higher order clusters were observed (FIG. 2, panel A). This clustering is independent of protein concentration since transfection with smaller amounts of expression vector gave the same clustering pattern. To confirm this FNIII-clustering, we set up a His/SEAP co-precipitation experiment. In this assay, FNIII-SEAP-FLAG proteins were co-expressed with FNIII-FLAG-His, or with empty vector as a negative control. Supernatants were analyzed in a precipitation experiment with a Ni²⁺ affinity resin. Co-precipitated SEAP activity reflects interaction between the proteins. FIG. 2, panel B clearly confirms homotypic interaction of the FNIII domain.
On the technique in general: Immunoblotting shows a protein as a band on a membrane.

Data set [2] concerns the molecule itself. In words: non-reducing anti-FLAG Western blot of secreted protein (self-association).
Data set [3] deals with the molecule itself. In words: non-reducing anti-FLAG Western blot of COS-1 lysates (self-association). The text has this:
Panel A: Plasmids encoding (1) mLR ΔCRH1, ΔIg, ΔCRH2; (2) mLR ΔCRH1, ΔIg, ΔCRH2 cys672ser; (3) mLR ΔCRH1, ΔIg, ΔCRH2 cys751ser; (4) mLR ΔCRH1, ΔIg, ΔCRH2 cys672,751ser were transiently transfected in COS-1 cells. Transfected cells were lyzed in a reducing (R) or non-reducing (NR) loading buffer. Lysates were loaded on a SDS-PAGE gel, blotted to a nitro-cellulose membrane and subjected to Western blot with an anti-FLAG antibody.

B1: CRH2-FLAG-His (receptor, murine, UniProt P48356 428-635, looked up, not shown: small tags and cut ends)
chain: VNINISCETDGYLTKMTCRWSPSTIQSLVGSTVQLRYHRRSLYCPDSPSIHPTSEPKNCVLQRDGFYECVFQPIFLLSGYTMWIRINHSLGSLDSPPTCVLPDSVVKPLPPSNVKAEITVNTGLLKVSWEKPVFPENNLQFQIRYGLSGKEIQWKTHEVFDAKSKSASLLVSDLCAVYVVQVRCRRLDGLGYWSNWSSPAYTLVMDVK
notes: domain: CRH2; Expressed as a reduction-sensitive oligomeric complex; also called mLR CRH2-FLAG-His; soluble CRH2 domain
On to B1, for which the binding result in data set [1] was “binds”.

B2: FNIII-FLAG-His (receptor, murine, UniProt P48356 637-839, looked up, not shown: small tags and cut ends)
chain: PMRGPEFWRKMDGDVTKKERNVTLLWKPLTKNDSLCSVRRYVVKHRTAHNGTWSEDVGNRTNLTFLWTEPAHTVTVLAVNSLGASLVNFNLTFSWPMSKVSAVESLSAYPLSSSCVILSWTLSPDDYSLLYLVIEWKILNEDDGMKWLRIPSNVKKFYIHDNFIPIEKYQFSLYPVFMEGVGKPKIINGFTKDAIDKQQNDAG
notes: domain: FNIII domains; Secreted from COS-1 or Hek293T cells; runs as di-, tri- and higher order disulphide-linked clusters under non-reducing conditions; also called mLR FNIII-FLAG-His; soluble FNIII domains
On to B2, for which the binding result in data set [1] is listed as “binds”.

B3: FNIII-FLAG-His cys751ser (receptor, murine, UniProt P48356 637-839, looked up, not shown: small tags and cut ends)
chain: PMRGPEFWRKMDGDVTKKERNVTLLWKPLTKNDSLCSVRRYVVKHRTAHNGTWSEDVGNRTNLTFLWTEPAHTVTVLAVNSLGASLVNFNLTFSWPMSKVSAVESLSAYPLSSSSVILSWTLSPDDYSLLYLVIEWKILNEDDGMKWLRIPSNVKKFYIHDNFIPIEKYQFSLYPVFMEGVGKPKIINGFTKDAIDKQQNDAG
notes: domain: FNIII domains
As for B3, the binding result in data set [2] was “binds”.

B4: FNIII-FLAG-His cys672ser (receptor, murine, UniProt P48356 637-839, looked up, not shown: small tags and cut ends)
chain: PMRGPEFWRKMDGDVTKKERNVTLLWKPLTKNDSLSSVRRYVVKHRTAHNGTWSEDVGNRTNLTFLWTEPAHTVTVLAVNSLGASLVNFNLTFSWPMSKVSAVESLSAYPLSSSCVILSWTLSPDDYSLLYLVIEWKILNEDDGMKWLRIPSNVKKFYIHDNFIPIEKYQFSLYPVFMEGVGKPKIINGFTKDAIDKQQNDAG
notes: domain: FNIII domains
B4: the binding result in data set [2] is listed as “binds”.

B5: mLR ΔCRH1, ΔIg, ΔCRH2 cys751ser (receptor, murine, UniProt P48356 637-1162, looked up, not shown: small tags and cut ends)
chain: PMRGPEFWRKMDGDVTKKERNVTLLWKPLTKNDSLCSVRRYVVKHRTAHNGTWSEDVGNRTNLTFLWTEPAHTVTVLAVNSLGASLVNFNLTFSWPMSKVSAVESLSAYPLSSSSVILSWTLSPDDYSLLYLVIEWKILNEDDGMKWLRIPSNVKKFYIHDNFIPIEKYQFSLYPVFMEGVGKPKIINGFTKDAIDKQQNDAGLYVIVPIIISSCVLLLGTLLISHQRMKKLFWDDVPNPKNCSWAQGLNFQKPETFEHLFTKHAESVIFGPLLLEPEPISEEISVDTAWKNKDEMVPAAMVSLLLTTPDPESSSICISDQCNSANFSGSQSTQVTCEDECQRQPSVKYATLVSNDKLVETDEEQGFIHSPVSNCISSNHSPLRQSFSSSSWETEAQTFFLLSDQQPTMISPQLSFSGLDELLELEGSFPEENHREKSVCYLGVTSVNRRESGVLLTGEAGILCTFPAQCLFSDIRILQERCSHFVENNLSLGTSGENFVPYMPQFQTCSTHSHKIMENKMCDLTV
notes: domain: FNIII, transmembrane and cytoplasmic domains (CRH1, Ig and CRH2 deleted); also called single cys751ser mutant receptor
As to B5, the binding result in data set [3] was “binds”.

B6: mLR ΔCRH1, ΔIg, ΔCRH2 cys672ser (receptor, murine, UniProt P48356 637-1162, looked up, not shown: small tags and cut ends)
chain: PMRGPEFWRKMDGDVTKKERNVTLLWKPLTKNDSLSSVRRYVVKHRTAHNGTWSEDVGNRTNLTFLWTEPAHTVTVLAVNSLGASLVNFNLTFSWPMSKVSAVESLSAYPLSSSCVILSWTLSPDDYSLLYLVIEWKILNEDDGMKWLRIPSNVKKFYIHDNFIPIEKYQFSLYPVFMEGVGKPKIINGFTKDAIDKQQNDAGLYVIVPIIISSCVLLLGTLLISHQRMKKLFWDDVPNPKNCSWAQGLNFQKPETFEHLFTKHAESVIFGPLLLEPEPISEEISVDTAWKNKDEMVPAAMVSLLLTTPDPESSSICISDQCNSANFSGSQSTQVTCEDECQRQPSVKYATLVSNDKLVETDEEQGFIHSPVSNCISSNHSPLRQSFSSSSWETEAQTFFLLSDQQPTMISPQLSFSGLDELLELEGSFPEENHREKSVCYLGVTSVNRRESGVLLTGEAGILCTFPAQCLFSDIRILQERCSHFVENNLSLGTSGENFVPYMPQFQTCSTHSHKIMENKMCDLTV
notes: domain: FNIII, transmembrane and cytoplasmic domains (CRH1, Ig and CRH2 deleted)
B6: in data set [3], the binding result is reported as “binds”.
